Results published in patent US20250034212A1, “PEPTIDE” (PEPTIDREAM INC., priority 2021, published 2025).
Read-outs that look alike come from different tables or passages of the source. Starred links: 1 amine or outer side, 2 acyl side, 3 side chain; linkers in the order of their positions; H or OH if unused. Positions of bridges follow the written chain, without caps; N, C: chain ends. Non-standard residues stand in square brackets, D forms with d. *: point of attachment. KCOmeglumine = N6-(methyl-((2S,3R,4R,5R)-2,3,4,5,6-pentahydroxyhexyl)carbamoyl)-L-lysine, CN(C[C@H](O)[C@@H](O)[C@H](O)[C@H](O)CO)C(=O)NCCCC[C@H](N[*:1])C(=O)[*:2]; KCOpipzaa = N6-(4-(carboxymethyl)piperazine-1-carbonyl)-L-lysine, O=C(NCCCC[C@H](N[*:1])C(=O)[*:2])N1CCN(CC(=O)[*:3])CC1; CH3O(CH2CH2O)7C2H4CO = COCCOCCOCCOCCOCCOCCOCCOCCC(=O)*; 1Nal = N[C@@H](Cc1cccc2ccccc12)C(=O)O; Gly(NCH2CH2Ph) = O=C(O)CNCCc1ccccc1; 4Pal = N[C@@H](Cc1ccncc1)C(=O)O

Columns and labels:
[1] = molecular target: T1, recombinant human TGF-β1 (R&D systems) (human, UniProt P01137 279-390); assay: cell-based or functional assay
[2] = molecular target: T1, recombinant human TGF-β1 (R&D systems); assay: cell-based or functional assay; remark: listed apart in the source

T1 sequence (P01137 279-390 limits assumed): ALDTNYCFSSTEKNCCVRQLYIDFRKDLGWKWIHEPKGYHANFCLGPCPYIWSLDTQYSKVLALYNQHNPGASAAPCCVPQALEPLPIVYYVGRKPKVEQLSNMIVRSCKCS

| Binder | SBE reporter % inhibition, peptide 0.062 nM [1] [%] | SBE reporter % inhibition, peptide 0.185 nM [1] [%] | SBE reporter % inhibition, peptide 0.56 nM [1] [%] | SBE reporter % inhibition, peptide 1.7 nM [1] [%] | SBE reporter % inhibition, peptide 5.0 nM [1] [%] | SBE reporter % inhibition, peptide 15.0 nM [1] [%] | SBE reporter % inhibition, peptide 0.062 nM [2] [%] | SBE reporter % inhibition, peptide 0.185 nM [2] [%] | SBE reporter % inhibition, peptide 0.56 nM [2] [%] | SBE reporter % inhibition, peptide 1.7 nM [2] [%] | SBE reporter % inhibition, peptide 5.0 nM [2] [%] | SBE reporter % inhibition, peptide 15.0 nM [2] [%] |
| --- | --- | --- | --- | --- | --- | --- | --- | --- | --- | --- | --- | --- |
| {CH2CO}-F[1Nal]V[KCOmeglumine]NV[4Pal]D[KCOmeglumine][Gly(NCH2CH2Ph)]V[1Nal]YHECG-NH2 (thioether N-16; SMILES CC(C)[C@@H]1NC(=O)CN(CCc2ccccc2)C(=O)[C@H](CCCCNC(=O)N(C)C[C@H](O)[C@@H](O)[C@H](O)[C@H](O)CO)NC(=O)[C@H](CC(=O)O)NC(=O)[C@H](Cc2ccncc2)NC(=O)[C@H](C(C)C)NC(=O)[C@H](CC(N)=O)NC(=O)[C@H](CCCCNC(=O)N(C)C[C@H](O)[C@@H](O)[C@H](O)[C@H](O)CO)NC(=O)[C@H](C(C)C)NC(=O)[C@H](Cc2cccc3ccccc23)NC(=O)[C@H](Cc2ccccc2)NC(=O)CSC[C@@H](C(=O)NCC(N)=O)NC(=O)[C@H](CCC(=O)O)NC(=O)[C@H](Cc2c[nH]cn2)NC(=O)[C@H](Cc2ccc(O)cc2)NC(=O)[C@H](Cc2cccc3ccccc23)NC1=O) [TGFb1_030] | 10.9 | 14.3 | 29.9 | 52.5 | 80.8 | 95.2 | – | – | – | – | – | – |
| {CH2CO}-F[1Nal]V[KCOmeglumine]NV[4Pal]DE[Gly(NCH2CH2Ph)]V[1Nal]YH[KCOpipzaa]CG-NH2 (thioether N-16; SMILES CC(C)[C@@H]1NC(=O)CN(CCc2ccccc2)C(=O)[C@H](CCC(=O)O)NC(=O)[C@H](CC(=O)O)NC(=O)[C@H](Cc2ccncc2)NC(=O)[C@H](C(C)C)NC(=O)[C@H](CC(N)=O)NC(=O)[C@H](CCCCNC(=O)N(C)C[C@H](O)[C@@H](O)[C@H](O)[C@H](O)CO)NC(=O)[C@H](C(C)C)NC(=O)[C@H](Cc2cccc3ccccc23)NC(=O)[C@H](Cc2ccccc2)NC(=O)CSC[C@@H](C(=O)NCC(N)=O)NC(=O)[C@H](CCCCNC(=O)N2CCN(CC(=O)O)CC2)NC(=O)[C@H](Cc2c[nH]cn2)NC(=O)[C@H](Cc2ccc(O)cc2)NC(=O)[C@H](Cc2cccc3ccccc23)NC1=O) [TGFb1_024] | 5.79 | 16.6 | 45 | 80.2 | 95.5 | 98.9 | – | – | – | – | – | – |
| {CH2CO}-F[1Nal]VVNV[4Pal]D[KCOmeglumine][Gly(NCH2CH2Ph)]V[1Nal]YH[KCOpipzaa]CG-NH2 (thioether N-16; SMILES CC(C)[C@@H]1NC(=O)CN(CCc2ccccc2)C(=O)[C@H](CCCCNC(=O)N(C)C[C@H](O)[C@@H](O)[C@H](O)[C@H](O)CO)NC(=O)[C@H](CC(=O)O)NC(=O)[C@H](Cc2ccncc2)NC(=O)[C@H](C(C)C)NC(=O)[C@H](CC(N)=O)NC(=O)[C@H](C(C)C)NC(=O)[C@H](C(C)C)NC(=O)[C@H](Cc2cccc3ccccc23)NC(=O)[C@H](Cc2ccccc2)NC(=O)CSC[C@@H](C(=O)NCC(N)=O)NC(=O)[C@H](CCCCNC(=O)N2CCN(CC(=O)O)CC2)NC(=O)[C@H](Cc2c[nH]cn2)NC(=O)[C@H](Cc2ccc(O)cc2)NC(=O)[C@H](Cc2cccc3ccccc23)NC1=O) [TGFb1_023] | 8.58 | 24.4 | 49.7 | 82.3 | 96 | 99.5 | – | – | – | – | – | – |
| {CH2CO}-F[1Nal]V[KCOmeglumine]NV[4Pal]D[KCOmeglumine][Gly(NCH2CH2Ph)]V[1Nal]YH[KCOpipzaa]CG-NH2 (thioether N-16; SMILES CC(C)[C@@H]1NC(=O)CN(CCc2ccccc2)C(=O)[C@H](CCCCNC(=O)N(C)C[C@H](O)[C@@H](O)[C@H](O)[C@H](O)CO)NC(=O)[C@H](CC(=O)O)NC(=O)[C@H](Cc2ccncc2)NC(=O)[C@H](C(C)C)NC(=O)[C@H](CC(N)=O)NC(=O)[C@H](CCCCNC(=O)N(C)C[C@H](O)[C@@H](O)[C@H](O)[C@H](O)CO)NC(=O)[C@H](C(C)C)NC(=O)[C@H](Cc2cccc3ccccc23)NC(=O)[C@H](Cc2ccccc2)NC(=O)CSC[C@@H](C(=O)NCC(N)=O)NC(=O)[C@H](CCCCNC(=O)N2CCN(CC(=O)O)CC2)NC(=O)[C@H](Cc2c[nH]cn2)NC(=O)[C@H](Cc2ccc(O)cc2)NC(=O)[C@H](Cc2cccc3ccccc23)NC1=O) [TGFb1_026] | 6.85 | 17.8 | 41.4 | 74.3 | 93.4 | 98 | – | – | – | – | – | – |
| {CH2CO}-F[1Nal]V[KCOpipzaa]NV[4Pal]DD[Gly(NCH2CH2Ph)]V[1Nal]YH[KCOpipzaa]CG-NH2 (thioether N-16; SMILES CC(C)[C@@H]1NC(=O)CN(CCc2ccccc2)C(=O)[C@H](CC(=O)O)NC(=O)[C@H](CC(=O)O)NC(=O)[C@H](Cc2ccncc2)NC(=O)[C@H](C(C)C)NC(=O)[C@H](CC(N)=O)NC(=O)[C@H](CCCCNC(=O)N2CCN(CC(=O)O)CC2)NC(=O)[C@H](C(C)C)NC(=O)[C@H](Cc2cccc3ccccc23)NC(=O)[C@H](Cc2ccccc2)NC(=O)CSC[C@@H](C(=O)NCC(N)=O)NC(=O)[C@H](CCCCNC(=O)N2CCN(CC(=O)O)CC2)NC(=O)[C@H](Cc2c[nH]cn2)NC(=O)[C@H](Cc2ccc(O)cc2)NC(=O)[C@H](Cc2cccc3ccccc23)NC1=O) [TGFb1_019] | 5.21 | 11.3 | 30.2 | 61.6 | 87.8 | 96.4 | – | – | – | – | – | – |

Continued, values first:

| SBE reporter % inhibition, peptide 0.062 nM [1] [%] | SBE reporter % inhibition, peptide 0.185 nM [1] [%] | SBE reporter % inhibition, peptide 0.56 nM [1] [%] | SBE reporter % inhibition, peptide 1.7 nM [1] [%] | SBE reporter % inhibition, peptide 5.0 nM [1] [%] | SBE reporter % inhibition, peptide 15.0 nM [1] [%] | SBE reporter % inhibition, peptide 0.062 nM [2] [%] | SBE reporter % inhibition, peptide 0.185 nM [2] [%] | SBE reporter % inhibition, peptide 0.56 nM [2] [%] | SBE reporter % inhibition, peptide 1.7 nM [2] [%] | SBE reporter % inhibition, peptide 5.0 nM [2] [%] | SBE reporter % inhibition, peptide 15.0 nM [2] [%] | Binder |
| --- | --- | --- | --- | --- | --- | --- | --- | --- | --- | --- | --- | --- |
| 6.49 | 20.8 | 53.8 | 85.2 | 97.1 | 99.5 | – | – | – | – | – | – | {CH2CO}-F[1Nal]VVNV[4Pal]D[KCOpipzaa][Gly(NCH2CH2Ph)]V[1Nal]YH[KCOpipzaa]CG-NH2 (thioether N-16; SMILES CC(C)[C@@H]1NC(=O)CN(CCc2ccccc2)C(=O)[C@H](CCCCNC(=O)N2CCN(CC(=O)O)CC2)NC(=O)[C@H](CC(=O)O)NC(=O)[C@H](Cc2ccncc2)NC(=O)[C@H](C(C)C)NC(=O)[C@H](CC(N)=O)NC(=O)[C@H](C(C)C)NC(=O)[C@H](C(C)C)NC(=O)[C@H](Cc2cccc3ccccc23)NC(=O)[C@H](Cc2ccccc2)NC(=O)CSC[C@@H](C(=O)NCC(N)=O)NC(=O)[C@H](CCCCNC(=O)N2CCN(CC(=O)O)CC2)NC(=O)[C@H](Cc2c[nH]cn2)NC(=O)[C@H](Cc2ccc(O)cc2)NC(=O)[C@H](Cc2cccc3ccccc23)NC1=O) [TGFb1_022] |
| 8.5 | 15.8 | 36.3 | 70.4 | 89.3 | 96.9 | – | – | – | – | – | – | {CH2CO}-F[1Nal]V[KCOmeglumine]NV[4Pal]DD[Gly(NCH2CH2Ph)]V[1Nal]YH[KCOpipzaa]CG-NH2 (thioether N-16; SMILES CC(C)[C@@H]1NC(=O)CN(CCc2ccccc2)C(=O)[C@H](CC(=O)O)NC(=O)[C@H](CC(=O)O)NC(=O)[C@H](Cc2ccncc2)NC(=O)[C@H](C(C)C)NC(=O)[C@H](CC(N)=O)NC(=O)[C@H](CCCCNC(=O)N(C)C[C@H](O)[C@@H](O)[C@H](O)[C@H](O)CO)NC(=O)[C@H](C(C)C)NC(=O)[C@H](Cc2cccc3ccccc23)NC(=O)[C@H](Cc2ccccc2)NC(=O)CSC[C@@H](C(=O)NCC(N)=O)NC(=O)[C@H](CCCCNC(=O)N2CCN(CC(=O)O)CC2)NC(=O)[C@H](Cc2c[nH]cn2)NC(=O)[C@H](Cc2ccc(O)cc2)NC(=O)[C@H](Cc2cccc3ccccc23)NC1=O) [TGFb1_020] |
| 4.81 | 18.4 | 43.3 | 77.5 | 94.7 | 99.4 | – | – | – | – | – | – | {CH2CO}-F[1Nal]V[KCOmeglumine]NV[4Pal]D[KCOpipzaa][Gly(NCH2CH2Ph)]V[1Nal]YH[KCOpipzaa]CG-NH2 (thioether N-16; SMILES CC(C)[C@@H]1NC(=O)CN(CCc2ccccc2)C(=O)[C@H](CCCCNC(=O)N2CCN(CC(=O)O)CC2)NC(=O)[C@H](CC(=O)O)NC(=O)[C@H](Cc2ccncc2)NC(=O)[C@H](C(C)C)NC(=O)[C@H](CC(N)=O)NC(=O)[C@H](CCCCNC(=O)N(C)C[C@H](O)[C@@H](O)[C@H](O)[C@H](O)CO)NC(=O)[C@H](C(C)C)NC(=O)[C@H](Cc2cccc3ccccc23)NC(=O)[C@H](Cc2ccccc2)NC(=O)CSC[C@@H](C(=O)NCC(N)=O)NC(=O)[C@H](CCCCNC(=O)N2CCN(CC(=O)O)CC2)NC(=O)[C@H](Cc2c[nH]cn2)NC(=O)[C@H](Cc2ccc(O)cc2)NC(=O)[C@H](Cc2cccc3ccccc23)NC1=O) [TGFb1_025] |
| – | – | – | – | – | – | 9.29 | 20.1 | 51.9 | 84.9 | 96.7 | 99.1 | {CH2CO}-F[1Nal]VVNV[4Pal]DD[Gly(NCH2CH2Ph)]V[1Nal]YH[KCOpipzaa]CGK(CH3O(CH2CH2O)7C2H4CO)-NH2 (thioether N-16; SMILES COCCOCCOCCOCCOCCOCCOCCOCCC(=O)NCCCC[C@H](NC(=O)CNC(=O)[C@@H]1CSCC(=O)N[C@@H](Cc2ccccc2)C(=O)N[C@@H](Cc2cccc3ccccc23)C(=O)N[C@@H](C(C)C)C(=O)N[C@@H](C(C)C)C(=O)N[C@@H](CC(N)=O)C(=O)N[C@@H](C(C)C)C(=O)N[C@@H](Cc2ccncc2)C(=O)N[C@@H](CC(=O)O)C(=O)N[C@@H](CC(=O)O)C(=O)N(CCc2ccccc2)CC(=O)N[C@@H](C(C)C)C(=O)N[C@@H](Cc2cccc3ccccc23)C(=O)N[C@@H](Cc2ccc(O)cc2)C(=O)N[C@@H](Cc2c[nH]cn2)C(=O)N[C@@H](CCCCNC(=O)N2CCN(CC(=O)O)CC2)C(=O)N1)C(N)=O, cyclic peptide; linker G K(MePEG8c) at the C-terminus) [TGFb1_031] |
